Experiment [1] deals with KS-PPT di-domain construct of the S. cerevisiae FAS α-chain (S. cerevisiae). The experiment can be described thus: SEC. On the technique in general: In gel filtration, larger molecules generally elute earlier.
For experiment [2] the target is unchanged. As to the kind of experiment: SEC. The source holds these as a separate data set.

Read-outs that look alike come from different tables or passages of the source.

For “KS-PPT di-domain construct of the S. cerevisiae FAS α-chain (domain or fragment)”, the stoichiometry N (as a rule, the number of molecules, sites or subunits per partner or assembly) came out at 2.5 in experiment [1] and 2 in experiment [2].

These data come from article doi:10.1101/336578.
